One assay concerns the target T1, mouse α9 integrin (mouse, UniProt B8JK39 29-1036).
T1 chain: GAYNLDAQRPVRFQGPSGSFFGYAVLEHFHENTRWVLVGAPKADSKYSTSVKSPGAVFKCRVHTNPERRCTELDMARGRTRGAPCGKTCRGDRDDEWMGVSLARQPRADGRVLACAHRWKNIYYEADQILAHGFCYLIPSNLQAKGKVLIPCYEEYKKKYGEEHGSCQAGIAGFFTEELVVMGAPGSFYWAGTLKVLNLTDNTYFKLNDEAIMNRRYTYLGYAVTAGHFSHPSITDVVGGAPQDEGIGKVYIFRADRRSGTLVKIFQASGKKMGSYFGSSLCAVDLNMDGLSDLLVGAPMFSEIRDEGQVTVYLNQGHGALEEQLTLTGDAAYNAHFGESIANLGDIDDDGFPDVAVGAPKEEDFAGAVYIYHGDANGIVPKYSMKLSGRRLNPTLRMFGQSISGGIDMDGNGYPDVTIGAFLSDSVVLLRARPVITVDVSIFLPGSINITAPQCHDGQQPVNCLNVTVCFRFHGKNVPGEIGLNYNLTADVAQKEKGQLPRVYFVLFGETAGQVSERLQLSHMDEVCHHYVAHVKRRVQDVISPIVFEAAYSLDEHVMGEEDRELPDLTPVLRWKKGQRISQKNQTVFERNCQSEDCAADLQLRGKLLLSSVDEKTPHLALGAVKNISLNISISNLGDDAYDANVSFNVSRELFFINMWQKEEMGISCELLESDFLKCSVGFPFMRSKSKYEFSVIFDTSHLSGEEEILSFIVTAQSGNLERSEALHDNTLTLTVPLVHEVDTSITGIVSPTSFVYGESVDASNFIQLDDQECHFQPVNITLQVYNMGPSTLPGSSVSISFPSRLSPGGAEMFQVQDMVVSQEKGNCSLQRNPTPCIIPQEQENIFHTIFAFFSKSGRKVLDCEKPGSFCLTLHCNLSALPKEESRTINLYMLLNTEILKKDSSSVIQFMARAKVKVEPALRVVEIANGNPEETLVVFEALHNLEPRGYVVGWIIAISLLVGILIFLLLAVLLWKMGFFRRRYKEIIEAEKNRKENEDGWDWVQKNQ
Nature of the assay: cell-based or functional assay.

In assay [1] the target is T2, human α9 integrin (human, UniProt Q13797 30-1035).
T2 sequence: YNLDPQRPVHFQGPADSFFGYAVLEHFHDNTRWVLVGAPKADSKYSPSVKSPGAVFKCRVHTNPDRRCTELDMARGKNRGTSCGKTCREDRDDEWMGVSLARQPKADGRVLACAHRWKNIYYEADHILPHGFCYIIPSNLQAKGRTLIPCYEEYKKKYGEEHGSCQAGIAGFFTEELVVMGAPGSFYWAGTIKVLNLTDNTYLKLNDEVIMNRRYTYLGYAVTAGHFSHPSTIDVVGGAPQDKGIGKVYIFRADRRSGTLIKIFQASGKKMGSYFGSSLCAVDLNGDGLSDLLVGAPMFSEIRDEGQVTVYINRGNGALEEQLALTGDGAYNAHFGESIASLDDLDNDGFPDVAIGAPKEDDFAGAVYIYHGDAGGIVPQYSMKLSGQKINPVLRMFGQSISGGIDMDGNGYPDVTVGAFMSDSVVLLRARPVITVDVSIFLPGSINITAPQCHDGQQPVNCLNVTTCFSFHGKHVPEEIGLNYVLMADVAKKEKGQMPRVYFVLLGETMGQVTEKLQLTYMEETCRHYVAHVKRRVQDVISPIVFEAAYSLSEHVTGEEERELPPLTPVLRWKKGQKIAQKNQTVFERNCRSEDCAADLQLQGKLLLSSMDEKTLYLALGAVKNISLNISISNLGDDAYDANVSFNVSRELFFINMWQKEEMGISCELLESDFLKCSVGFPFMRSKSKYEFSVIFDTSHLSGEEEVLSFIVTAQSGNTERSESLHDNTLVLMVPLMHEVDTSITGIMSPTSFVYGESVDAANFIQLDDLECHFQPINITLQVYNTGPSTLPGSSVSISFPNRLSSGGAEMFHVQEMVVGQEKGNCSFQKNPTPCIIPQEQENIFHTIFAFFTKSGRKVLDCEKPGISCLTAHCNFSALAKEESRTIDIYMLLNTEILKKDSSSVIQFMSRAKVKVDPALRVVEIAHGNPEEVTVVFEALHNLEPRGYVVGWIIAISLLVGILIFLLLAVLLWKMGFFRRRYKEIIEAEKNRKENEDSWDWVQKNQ
The assay can be described thus: cell-based or functional assay.

For assay [2], the target named is T2, human α9 integrin. The assay can be described thus: cell-based or functional assay. This is another data set of the same source.
Assay [3] addresses T2, human α9 integrin. Nature of the assay: Cell ELISA of IgG in culture supernatant, anti-human IgG(Fc) detection. The protocol: CHO/mα9 and CHO were seeded on a 96 well plate (costar) at 2×10⁴ cells/100 μL/well, and incubated overnight at 37° C., 5% CO₂. The medium was suctioned, and the cells were washed with PBS, and reacted with phage antibody diluted with 1% BSA/PBS. The detection was performed by using horse-radish peroxidase (HRP)-labeled anti-M13 antibody (Amersham) and TMB (SIGMA) in combination. The absorbance at wavelengths 450 nm and 650 nm was measured by a microplate reader (Molecular Devices).
SW480/mα9, SW480/hα9 and SW480 were used as antigens, 1% BSA/PBS containing 5% FBS was used as a dilution solution, an HRP-labeled anti-mouse IgG antibody (ZYMED) was used for detection, and the rest was performed under the same conditions as in Example 4.
The IgG expression amount in the culture supernatant was quantified by human IgG quantification ELISA, and the reactivity with human α9 and mouse α9 at each IgG concentration was analyzed by Cell ELISA. HRP-labeled anti-human IgG(Fc) antibody (American Qualex) was used for detection, and the rest was performed under the same conditions as in Example 11.

We go through five molecules from patent US20110014213A1 (JURIDICAL FDN THE CHEMO SERO THERAP RES INS, published 2011).

Some results are limits rather than exact numbers.

B1: HA9-107 scFv-Fc (Fc fusion, not shown: a dimerising Fc or GST)
scFv: EVQLVESGGGVVRPGGSLRLSCAASGFAFGDYGMSWVRQAPGKGLEWVSGINWNGGSTGYADSVKGRFTTSRDNAKNSLYLQMNSLRAEDTALYYCARDENYDILTNEYYYGMDVWGQGTTVTVSSGGGGSGGGGSGGGGSQSVVTQPPSVSAAPGQKVTISCSGSSSNIGNNYVSWYQQLPGTAPKLLIYDNNKRPSGIPDRFSASKSGTSATLGITGLQTGDEADYYCGTWDSSLTVWAFGGGTKLTVLG
On to B1, for which the “IC50 of inhibition of α9-dependent cell adhesion” value with mouse α9 integrin was 0.067 µg/mL; in the assay with human α9 integrin [1], greater than 10 µg/mL.

B2: HA9-143 scFv-Fc (Fc fusion, not shown: a dimerising Fc or GST)
scFv: EVQLVESGGGVVRPGGSLRLSCAASGFAFGEYGMSWVRQAPGKGLEWVSGINWNGGSTGYADSVKGRFTTSRDNAKNSLYLQMNSLRAEDTALYYCARDENYDILTGHYYYGMDVWGQGTTVTVSSGGGGSGGGGSGGGGSQSVVTQPPSVSAAPGQKVTISCSGSSSNIGNNYVSWYQQLPGTAPKLLIYDNNKRPSGIPDRFSASKSGTSATLGITGLQTGDEADYYCGTWDSSLTVWAFGGGTKLTVLG
For B2, the “IC50 of inhibition of α9-dependent cell adhesion” value with mouse α9 integrin was found to be 2.32 µg/mL; in the assay with human α9 integrin [1], 0.42 µg/mL.

B3: HA9-212 scFv-Fc (Fc fusion, not shown: a dimerising Fc or GST)
scFv: EVQLVESGGGVVRPGGSLRLSCAASGFAFGEYGMSWVRQAPGKGLEWVSGINWNGGSTGYADSVQGRFTTSRDNAKNSLYLQMNSLRAEDTALYYCARDENYDILTGNYYYGMDVWGQGTTVTVSSGGGGSGGGGSGGGGSQSVVTQPPSVSAAPGQKVTISCSGSSSNIGNNYVSWYQQLPGTAPKLLIYDNNKRPSGIPDRFSASKSGTSATLGITGLQTGDEADYYCGTWDSSLTVWAFGGGTKLTVLG
Turning to B3, the “fold inhibitory activity against human α9-dependent cell adhesion, against MA9-413” value with human α9 integrin [2] was roughly 1000 fold. The results for the “IC50 of inhibition of α9-dependent cell adhesion” value with mouse α9 integrin and with human α9 integrin [1] were 3.3 µg/mL and 0.053 µg/mL, respectively.

B4: MA9-418 scFv-Fc (Fc fusion, not shown: a dimerising Fc or GST)
scFv: EVQLVESGGGVVRPGGSLRLSCAASGFAFGDYGMSWVRQAPGKGLEWVSGINWNGGSTGYADSVKGRFTTSRDNAKNSLYLQMNSLRAEDTALYYCARDENYDILTGAYYYGMDVWGQGTTVTVSSGGGGSGGGGSGGGGSQSVVTQPPSVSAAPGQKVTISCSGSSSNIGNNYVSWYQQLPGTAPKLLIYDNNKRPSGIPDRFSASKSGTSATLGITGLQTGDEADYYCGTWDSSLTVWAFGGGTKLTVLG
With B4, the results for the “IC50 of inhibition of α9-dependent cell adhesion” value with mouse α9 integrin and with human α9 integrin [1] were 0.96 µg/mL and greater than 10 µg/mL, respectively.

B5: HA9-212 IgG (antibody, V domains shown)
VH: EVQLVESGGGVVRPGGSLRLSCAASGFAFGEYGMSWVRQAPGKGLEWVSGINWNGGSTGYADSVQGRFTTSRDNAKNSLYLQMNSLRAEDTALYYCARDENYDILTGNYYYGMDVWGQGTTVTVSS
VL: QSVVTQPPSVSAAPGQKVTISCSGSSSNIGNNYVSWYQQLPGTAPKLLIYDNNKRPSGIPDRFSASKSGTSATLGITGLQTGDEADYYCGTWDSSLTVWAFGGGTKLTVLG
notes: VH joined to human IgG1 constant region; VL joined to 'human x chain constant region'; Tested as culture supernatant of COS-7 / FreeStyle 293-F cells
For the molecule B5, in the assay with human α9 integrin [3], the binding result was “binds”.
